Data taken from the supplement of paper PMC11780869.

Tested on: Bacillus subtilis
Assay: cleaved RNA product abundance (RNA/gDNA barcode ratio) relative to median wild-type variant (ratio to wild type); higher = more accumulation of the downstream cleavage product
How it was run: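 Cleaved product abundance was measured with barcoded reporter mRNAs (truncated aprE or tetM) carrying mutagenized RNase Y cleavage-site windows in the B. subtilis chromosome. Cultures in LB at 37°C grew from OD600 0.0003 to 0.3. Gel-selected cleaved RNA was reverse transcribed and barcode-sequenced with genomic DNA barcodes, and the RNA:gDNA barcode ratio per construct was scaled to the median construct bearing the unmutated site.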

[1] = experiment (reporter, strain, medium): exp 2b: truncated aprE reporter, strain BJT200, cleavage site: cggR-gapA (positions -7 to +36 mutated)
[2] = experiment (reporter, strain, medium): exp 4a: truncated aprE reporter, strain BJT201 with 2% xylose (RNase J1 expressed), cleavage site: cggR-gapA (positions -7 to +36 mutated)
[3] = experiment (reporter, strain, medium): exp 8a: truncated aprE reporter, strain BJT201 with 2% xylose (RNase J1 expressed), cleavage site: glnRA (positions -5 to +31 mutated)
[4] = experiment (reporter, strain, medium): exp 6: tetM reporter, strain 168, cleavage site: cggR-gapA (positions -7 to +36 mutated)

Row | Sequence | cleaved RNA product abundance [1] | cleaved RNA product abundance [2] | cleaved RNA product abundance [3] | cleaved RNA product abundance [4]
1 | ACAGACGAAGGAGCCGCAAATAAGTTATTAAGGGATGAATAATCCCTCAATATAGATATCTCTCACTTATTTAAA | 0.715 | 0.649 |  | 
2 | ACAGACGAAGGAGCCGCAAAGAAGCTATTAAGGGATGAATAATCCCTCAATTTAAATATCTCTCACTTATTTAAA |  | 0.0606 |  | 
3 | ACAGACGAAGGAGCCGCTAAGAAGTTATTAAGGGATGAATAATCCCTAAATATAAATATCTCTCACTTATTTAAA | 0.745 | 0.831 |  | 
4 | CGACATGTCCCGCTTCTTTCATTAATCCATTAGCAACTGTTTTGCTATAGACATTTACCTTTTAAGAGGAGGAAT |  |  | 0.532 | 
5 | CGACATGTCCCGCTTCTTTCATTAATCCGTTAGCAACTGTTTTGTTATAGACATTTACCTTTTAAGAGGAGGAAT |  |  | 0.265 | 
6 | ACAGACGAAGGAGCCGCAAAGTAGTTATTAAGGGATGAATAATCCCACAATATAAATATCTCTCACTTATTTAAA | 0.199 | 0.223 |  | 
7 | ACAGACGAAGGAGCCGCAAAGAAGTTATTAAGGCATGAATAATCCATCAATATAAATATCTCTCACTTATTTAAA | 0.102 | 0.114 |  | 
8 | ACAGACGAAGGAGCCGCAAAGAAGTTATTAAGGGATCAATAATCACTCAATATAAATATCTCTCACTTATTTAAA | 0.0917 | 0.0833 |  | 
9 | CGACATGTCCCGCTTCTTTCATTAATCCGTTAGCAACTGTTTTGCTATATACATTACCCTTTTAAGAGGAGGAAT |  |  | 0.597 | 
10 | ACAGACGAAGGAGCCGCATAGAAGTTATTAAGGAATGAATATTCCCTCAATATAAATATCTCTCACTTATTTAAA |  | 0.263 |  | 
11 | CGACATGTCCCGCTTCTTTCATTAATCCGTTAGCAAGTGTTTTGCTATATACATCTACCTTTTAAGAGGAGGAAT |  |  | 0.494 | 
12 | ACAGACGAAGGAGCCGCGAAGAAGTTATTAAGGGATGAATAAACCCTCAATATAAATATCTCTCACTTATTTAAA |  | 0.467 |  | 
13 | CGACATGTCCCGCTTCTTTCATTAATCCGTTAGCAACTGTTTTGCTATATACAATAACCTTTTAAGAGGAGGAAT |  |  | 0.855 | 
14 | ACAGACGAAGGAGCCGCAAAGAAGTTATTAAGAGATGAATAATCCCTCAATATAAATATATCTCACTTATTTAAA |  | 0.193 |  | 
15 | CGACATGTCCCGCTTCTTTCATTAATCCTTTAGCAACTGTTTTGCTATATACATTTATCTTTTAAGAGGAGGAAT |  |  | 0.826 | 
16 | ACAGACGAAGGAGCCGCAAAGAAGTTATTAAGGGATTAAGAATCCCTCAATATAAATATCTCTCACTTATTTAAA |  | 1.06 |  | 
17 | ACAGACGAAGGAGCCGCAAAGAAGATATTAAGTGATGAATAATCCCTCAATATAAATATCTCTCACTTATTTAAA | 0.103 | 0.137 |  | 
18 | ACAGACGAAGGAGCCGCAAAGAAGTTATTAAGGGATGAAGAATACCTCAATATAAATATCTCTCACTTATTTAAA |  | 0.106 |  | 
19 | CGACATGTCCCGCTTCTTTCATTAATCCGTTAGCAACTGTTTTGCTATATAAAATTACCTTTTAAGAGGAGGAAT |  |  | 0.606 | 
20 | ACAGACGAAGGAGCCGCAAGGAAGTTATTAAGGGATGAATCATCCCTCAATATAAATATCTCTCACTTATTTAAA | 0.824 | 0.633 |  | 

Row | Sequence | cleaved RNA product abundance [1] | cleaved RNA product abundance [2] | cleaved RNA product abundance [3] | cleaved RNA product abundance [4]
21 | ACAGACGAAGGAGCCGCAAAGAGGTTATTAAGTGATGAATAATCCCTCAATATAAATATCTCTCACTTATTTAAA |  | 0.0848 |  | 
22 | CGACATGTCCCGCTTCTTTCATTAATCCGTTAGCAACTGTTTTGCTATATACAATTAACTTTTAAGAGGAGGAAT |  |  | 2.58 | 
23 | ACAGACGAAGGAGCCGCAAAGAAGTTATTAAGGGATGCATCATCCCTCAATATAAATATCTCTCACTTATTTAAA |  | 0.307 |  | 
24 | ACAGACGAAGGAGCCGCAAAGAAGTTATTAAGTGATGAATAATCCCTCTATATAAATATCTCTCACTTATTTAAA | 0.109 | 0.128 |  | 
25 | ACAGACGAAGGAGCCGCAAAGAATTTATTAAGTGATGAATAATCCCTCAATATAAATATCTCTCACTTATTTAAA | 0.127 | 0.118 |  | 0.117
26 | ACAGACGAAGGAGCCGCAAAGAAGTAATTAAGGGATGTATAATCCCTCAATATAAATATCTCTCACTTATTTAAA |  | 0.346 |  | 
27 | ACAGACGAAGGAGCCGCAAAGAAGTTATCAAGTGATGAATAATCCCTCAATATAAATATCTCTCACTTATTTAAA |  | 0.0945 |  | 
28 | ACAGACGAAGGAGCCGCAAAGAAGTAATTAAGGGATGAATGATCCCTCAATATAAATATCTCTCACTTATTTAAA | 0.134 |  |  | 
29 | ACAGACGAAGGAGCCGCAAAGAAGTTATTAAGGGATGAATAATCGCTCAATATTAATATCTCTCACTTATTTAAA | 0.0992 |  |  | 
30 | ACAGACGAAGGAGCCGCAAAGAATTTCTTAAGGGATGAATAATCCCTCAATATAAATATCTCTCACTTATTTAAA |  | 0.217 |  | 
31 | ACAGACGAAGGAGCCGCAAAGAAATTATTAAGGGATAAATAATCCCTCAATATAAATATCTCTCACTTATTTAAA | 0.818 | 0.761 |  | 1.1
32 | ACAGACGAAGGAGCCGCAAAGAAGTTATTAAGGGATGAATAATCTCTCAAAATAAATATCTCTCACTTATTTAAA | 0.283 | 0.283 |  | 
33 | ACAGACGAAGGAGCCGCAAAGAAGTTATAAAGGGATGAATAATCCCTCAAAATAAATATCTCTCACTTATTTAAA |  | 0.292 |  | 
34 | ACAGACGAAGGAGCCGCAAAAAAGTTATTAAGGGATGAAAAATCCCTCAATATAAATATCTCTCACTTATTTAAA | 0.785 | 0.695 |  | 
35 | ACAGACGAAGGAGCCGCAAAGAAATTATTAAGGGATGATTAATCCCTCAATATAAATATCTCTCACTTATTTAAA | 0.816 | 0.599 |  | 
36 | CGACATGTCCCGCTTCTTTCATTAATCCGTTAGCAACTGTTTTGCTACATACATTTACCTTTTAAGAGGAGGAAT |  |  | 0.368 | 
37 | ACAGACGAAGGAGCCGCAAAGAAGTTATTAATCGATGAATAATCCCTCAATATAAATATCTCTCACTTATTTAAA |  | 0.164 |  | 
38 | ACAGACGAAGGAGCCGCAAAGAAGTTATTAAGGGATGCATAATCCCACAATATAAATATCTCTCACTTATTTAAA |  | 0.204 |  | 
39 | ACAGACGAAGGAGCCGCAATGAAGTTATTAAGCGATGAATAATCCCTCAATATAAATATCTCTCACTTATTTAAA | 0.0928 | 0.108 |  | 
40 | ACAGACGAAGGAGCCGCAAAGAAGTTATTAAGGGAAGAATAATCCCACAATATAAAAATCTCTCACTTATTTAAA |  | 0.118 |  | 

Row | Sequence | cleaved RNA product abundance [1] | cleaved RNA product abundance [2] | cleaved RNA product abundance [3] | cleaved RNA product abundance [4]
41 | ACAGACGAAGGAGCCGCAAACAAGTTATTAAGGTATGAATAATCCCTCAATATAAATATCTCTCACTTATTTAAA | 0.102 | 0.0749 |  | 
42 | ACAGACGAAGGAGCCGCATAGAAGTTATTAAGGGTTGAATAATCCCTCAATATAAATATCTCTCACTTATTTAAA | 0.498 | 0.41 |  | 
43 | ACAGACGAAGGAGCCGCAAAGAAGTTATTAAAGGATGAATAATCCCTTAATATAAATATCTCTCACTTATTTAAA | 1.16 | 1.06 |  | 
44 | ACAGACGAAGGAGCCGCAAAGAAATTATTAAGCGATTAATAATCCCTCAATATAAATATCTCTCACTTATTTAAA |  | 0.0984 |  | 
45 | ACAGACGAAGGAGCCGCATAGAAGTTATTAAGGGATAAATAATCCCTCAATATAAATATCTCTCACTTATTTAAA | 1.03 | 0.861 |  | 
46 | ACAGACGAAGGAGCCGCAAAGAAGATATTAAGGTATGAATAATCTCTCAATATAAATATCTCTCACTTATTTAAA | 0.105 |  |  | 
47 | ACAGACGAAGGAGCCGCAAAGAAATTATTAAGGGAAGAATAATCCCTCAATATAAATATCTCTCACTTATTTAAA | 0.394 | 0.599 |  | 
48 | ACAGACGAAGGAGCCGCAAAGAAGTTATTAACGGATGAATAATACCTCAATATAAATATCTCTCACTTATTTAAA | 0.0908 | 0.136 |  | 
49 | ACAGACGAAGGAGCCGCAAAGAAGTTATTAAGGGATGAAGAATCCCTCAATATAAATATCTCTCACTTATTTAAA | 0.653 | 0.658 |  | 0.732
50 | ACAGACGAAGGAGCCGCAAAGAAGTTATTAACGGATGAATAGTCCCTCAATATAAATATCTCTCACTTATTTAAA |  | 0.174 |  | 
51 | ACAGACGAAGGAGCCGCAAAGAACTTATTAAGAGATGAATAATCCCTCAATATAAATATCTCTCACTTATTTAAA | 0.092 | 0.147 |  | 
52 | CGACATGTCCCGCTTCTTTCATTAATCCGATACCAACTGTTTTGCTATATACATTTACCTTTTAAGAGGAGGAAT |  |  | 0.304 | 
53 | ACAGACGAAGGAGCCGCAAATAAGTTATTAAGGTTTGAATAATCCCTCAATATAAATATCTCTCACTTATTTAAA |  | 0.0913 |  | 
54 | ACAGACGAAGGAGCCGCAAAGAAGTTACTAAGGGATGATTAATCCCTCAATATAAATATCTCTCACTTATTTAAA | 0.155 |  |  | 
55 | CGACATGTCCCGCTTCTTTCATTAATCCGTTAGCAACTGTTTTTCTATATACAATTACCTTTTAAGAGGAGGAAT |  |  | 0.846 | 
56 | ACAGACGAAGGAGCCGCAAAGAAGTTCTTAAGGGATAAATAATCCCTCAATATAAATATCTCTCACTTATTTAAA | 0.104 | 0.212 |  | 
57 | ACAGACGAAGGAGCCGCAAATAAGTTATTAATGGATGAATAATCCCTCAATATAAATATCTCTCACTTATTTAAA | 0.123 | 0.184 |  | 
58 | ACAGACGAAGGAGCCGCAAAGAAGTTATTAAGGGATGAATTATCTCTCAATATAAATATCTCTCACTTATTTAAA | 0.318 | 0.37 |  | 
